Assay results reported in patent publication US20240181073A1, “Antibody-Drug Conjugates Comprising an Anti-BCMA Antibody” (Sorrento Therapeutics, Inc., priority 2021, published 2024).

T1: Human BCMA (B Cell Maturation Antigen) (human, UniProt Q02223 1-184)
T1 sequence: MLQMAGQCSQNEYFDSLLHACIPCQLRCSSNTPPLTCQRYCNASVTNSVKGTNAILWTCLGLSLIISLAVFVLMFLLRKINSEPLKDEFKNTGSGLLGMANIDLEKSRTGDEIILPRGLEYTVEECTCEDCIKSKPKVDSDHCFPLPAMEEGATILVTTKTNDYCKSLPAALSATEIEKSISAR


How the values were obtained:
Test in all cases: cell-based or functional assay
[1] = target: T1, Human BCMA (B Cell Maturation Antigen)
[2] = target: T1, Human BCMA (B Cell Maturation Antigen); remark: listed apart in the source
[3] = target: T1, Human BCMA (B Cell Maturation Antigen); remark: listed apart in the source

| Binder | EC50 of cell viability (Cell Titer-Glo), MM.1R (BCMA+) cells, 4-day assay [2] [nM] | EC50 of cell viability (Cell Titer-Glo), NCI-H929 (BCMA+) cells, 4-day assay [2] [nM] | EC50 of cell viability (Cell Titer-Glo), MM.1R (BCMA+) cells [3] [nM] | EC50 of cell viability (Cell Titer-Glo), NCI-H929 (BCMA+) cells [3] [nM] | other results |
| --- | --- | --- | --- | --- | --- |
| anti-BCMA-AB1-Compound 2 (antibody, human IgG1, V domains shown, drug-linker Compound 2 on antibody cysteine thiols (positions not stated)) VH: EVQLVESGGGLVKPGGSLRLSCAASGFTSSTAWMSWVRQAPGKGLEWVGRIKSKSDGGTTDYAAPVKGRFTISRDDSKNTLFLQMNSLKTEDTAVYYCAKGGGTYGYWGQGTTVTVSS VL: QSVLTQPASVSGSPGQSVTISCTGTSSAHGGHYYVSWYQQHPGKAPKLMIYDVSNRPSGVSNRFSGSKSGNTASLTISGLQAEDEADYYCGSYTSSGSYVFGTGTKLTVL | – | – | – | – | EC50 of cell viability (Cell Titer-Glo), MM.1R (BCMA+) cells, 5-day assay [1]: 0.987 nM; EC50 of cell viability (Cell Titer-Glo), NCI-H929 (BCMA+) cells, 5-day assay [1]: 0.316 nM |
| anti-BCMA-AB1-Compound 6 (antibody, human IgG1, V domains shown, drug-linker Compound 6 on antibody cysteine thiols (C-lock conjugation; positions not stated)) VH: EVQLVESGGGLVKPGGSLRLSCAASGFTSSTAWMSWVRQAPGKGLEWVGRIKSKSDGGTTDYAAPVKGRFTISRDDSKNTLFLQMNSLKTEDTAVYYCAKGGGTYGYWGQGTTVTVSS VL: QSVLTQPASVSGSPGQSVTISCTGTSSAHGGHYYVSWYQQHPGKAPKLMIYDVSNRPSGVSNRFSGSKSGNTASLTISGLQAEDEADYYCGSYTSSGSYVFGTGTKLTVL | 16.6 | 2.38 | – | – | – |
| anti-BCMA-AB2-Compound 3 (antibody, V domains shown, drug-linker Compound 3 on antibody cysteine thiols (positions not stated)) VH: EVQLVESGGGLVKPGGSLRLSCAASGFTSSTAWMSWVRQAPGKGLEWVGRIKSKSDGGTTDYAAPVKGRFTISRDDSKNTLFLQMNSLKTEDTAVYYCAKGGGTYGYWGQGTTVTVSS VL: QSALTQPASVSGSPGQSVTISCTGTSSDGGGHTYVSWYQQHPGKAPKLMIYDVSNRPSWVSNRFSGSKSGNTASLTISGLQAEDEADYYCGSYTSSGSYVFGTGTKLTVL | – | – | 55.3 | 7.31 | – |
| anti-BCMA-AB2-Compound 5 (antibody, V domains shown, drug-linker Compound 5 on antibody cysteine thiols (positions not stated)) VH: EVQLVESGGGLVKPGGSLRLSCAASGFTSSTAWMSWVRQAPGKGLEWVGRIKSKSDGGTTDYAAPVKGRFTISRDDSKNTLFLQMNSLKTEDTAVYYCAKGGGTYGYWGQGTTVTVSS VL: QSALTQPASVSGSPGQSVTISCTGTSSDGGGHTYVSWYQQHPGKAPKLMIYDVSNRPSWVSNRFSGSKSGNTASLTISGLQAEDEADYYCGSYTSSGSYVFGTGTKLTVL | – | – | 143 | 10 | – |
| anti-BCMA-AB1-Compound 7 (antibody, human IgG1, V domains shown, drug-linker Compound 7 on antibody cysteine thiols (maleimide conjugation; positions not stated)) VH: EVQLVESGGGLVKPGGSLRLSCAASGFTSSTAWMSWVRQAPGKGLEWVGRIKSKSDGGTTDYAAPVKGRFTISRDDSKNTLFLQMNSLKTEDTAVYYCAKGGGTYGYWGQGTTVTVSS VL: QSVLTQPASVSGSPGQSVTISCTGTSSAHGGHYYVSWYQQHPGKAPKLMIYDVSNRPSGVSNRFSGSKSGNTASLTISGLQAEDEADYYCGSYTSSGSYVFGTGTKLTVL | 37.7 | 2.64 | – | – | – |
| anti-BCMA-AB1-Compound 8 (antibody, human IgG1, V domains shown, drug-linker Compound 8 on antibody cysteine thiols (maleimide conjugation; positions not stated)) VH: EVQLVESGGGLVKPGGSLRLSCAASGFTSSTAWMSWVRQAPGKGLEWVGRIKSKSDGGTTDYAAPVKGRFTISRDDSKNTLFLQMNSLKTEDTAVYYCAKGGGTYGYWGQGTTVTVSS VL: QSVLTQPASVSGSPGQSVTISCTGTSSAHGGHYYVSWYQQHPGKAPKLMIYDVSNRPSGVSNRFSGSKSGNTASLTISGLQAEDEADYYCGSYTSSGSYVFGTGTKLTVL | 348 | 5.15 | – | – | – |
| anti-BCMA-AB2-Compound 8 (antibody, V domains shown, drug-linker Compound 8 on antibody cysteine thiols (positions not stated)) VH: EVQLVESGGGLVKPGGSLRLSCAASGFTSSTAWMSWVRQAPGKGLEWVGRIKSKSDGGTTDYAAPVKGRFTISRDDSKNTLFLQMNSLKTEDTAVYYCAKGGGTYGYWGQGTTVTVSS VL: QSALTQPASVSGSPGQSVTISCTGTSSDGGGHTYVSWYQQHPGKAPKLMIYDVSNRPSWVSNRFSGSKSGNTASLTISGLQAEDEADYYCGSYTSSGSYVFGTGTKLTVL | – | – | > 1000 | 29.7 | – |
